# Measurements published in US20100166708A1, “ANTIMICROBIAL AND ANTI-INFLAMMATORY THERAPIES AND COMPOSITIONS” (THE REGENTS OF THE UNIVERSITY OF CALIFORNIA, priority 2007, published 2010).
# Experiments:
# [1] = molecular target: phenol soluble modulin-delta (Staphylococcus epidermidis); assay: cell-based or functional assay
# [2] = molecular target: delta-haemolysin (Staphylococcus epidermidis); assay: tryptophan fluorescence, urea dissociation of peptide complexes, 5 µM peptide
# [3] = molecular target: delta-haemolysin (Staphylococcus epidermidis); assay: tryptophan fluorescence, urea dissociation of peptide complexes, 25 µM peptide
substance,measurement,setting,value
delta-haemolysin (peptide),MIC of delta-haemolysin against GAS in the presence of 2 µM PSMdelta,[1],4 µM
same,deltaG^1(H2O),[2],1.43 kcal/mol
same,deltaG^1(H2O),[3],1.57 kcal/mol
